Results taken from PMC3402474 (PLoS ONE, 2012).

B1: Bmh2 (natural protein, S. cerevisiae, UniProt P34730 1-273, looked up)
chain: MSQTREDSVYLAKLAEQAERYEEMVENMKAVASSGQELSVEERNLLSVAYKNVIGARRASWRIVSSIEQKEESKEKSEHQVELIRSYRSKIETELTKISDDILSVLDSHLIPSATTGESKVFYYKMKGDYHRYLAEFSSGDAREKATNSSLEAYKTASEIATTELPPTHPIRLGLALNFSVFYYEIQNSPDKACHLAKQAFDDAIAELDTLSEESYKDSTLIMQLLRDNLTLWTSDISESGQEDQQQQQQQQQQQQQQQQQAPAEQTQGEPTK
notes: also called yeast 14-3-3 protein Bmh2; recombinant Bmh2
B2: Bmh1 (natural protein, S. cerevisiae, UniProt P29311 1-267, looked up)
chain: MSTSREDSVYLAKLAEQAERYEEMVENMKTVASSGQELSVEERNLLSVAYKNVIGARRASWRIVSSIEQKEESKEKSEHQVELICSYRSKIETELTKISDDILSVLDSHLIPSATTGESKVFYYKMKGDYHRYLAEFSSGDAREKATNASLEAYKTASEIATTELPPTHPIRLGLALNFSVFYYEIQNSPDKACHLAKQAFDDAIAELDTLSEESYKDSTLIMQLLRDNLTLWTSDMSESGQAEDQQQQQQHQQQQPPAAAEGEAPK
notes: also called yeast 14-3-3 protein Bmh1; recombinant Bmh1

Assays:
dynamic light scattering = biological target: the molecule itself; assay: dynamic light scattering
Bmh2 [1] = biological target: B1; assay: SPR; details: both partners purified
Bmh1 [2] = biological target: B2; assay: SPR; details: both partners purified
Bmh2 [3] = biological target: B1; assay: SPR; BiacoreX, 25°C; recombinant Bmh1 or Bmh2 in 50 mM Tris (pH 7.5), 150 mM NaCl, 0.1 mM CaCl2 immobilized to CM5 chips; 2 µM sPLA2 injected; dissociation monitored 180 s; responses corrected for surface density and molecular weights; details: both partners purified
Bmh1 [4] = biological target: B2; assay: as above; details: both partners purified

Binder	stoichiometry N (dynamic light scattering)	binding result (Bmh2 [1])	binding result (Bmh1 [2])	binding result (Bmh2 [3])	binding result (Bmh1 [4])
B1	2	–	–	–	–
B2	2	–	–	–	–
ammodytoxin A (enzyme) SLLEFGMMILGETGKNPLTSYSFYGCYCGVGGKGTPKDATDRCCFVHDCCYGNLPDCSPKTDRYKYHRENGAIVCGKGTSCENRICECDRAAAICFRKNLKTYNYIYRNYPDFLCKKESEKC	–	binds	binds	–	–
ammodytoxin B (enzyme, also called AtxB) SLLEFGMMILGETGKNPLTSYSFYGCYCGVGGKGTPKDATDRCCFVHDCCYGNLPDCSPKTDRYKYHRENGAIVCGKGTSCENRICECDRAAAICFRKNLKTYNHIYMYYPDFLCKKESEKC	–	–	–	binds	binds
ammodytoxin C (enzyme, also called AtxC) SLLEFGMMILGETGKNPLTSYSFYGCYCGVGGKGTPKDATDRCCFVHDCCYGNLPDCSPKTDRYKYHRENGAIVCGKGTSCENRICECDRAAAICFRKNLKTYNYIYRNYPDILCKEESEKC	–	–	–	binds	binds
ammodytin L (natural protein) SVIEFGKMIQEETDKNPLTSYSFYGCHCGLGNKGKPKDATDRCCFVHSCCYAKLPDCSPKTNRYEYHRENGAIVCGSSTPCKKQICECDRAAAICFRENLKTYNKKYKVYLRFKCKGVSEKC	–	binds	binds	–	–
